In patent publication US20220227830A1, “QD DOSING OF GIP RECEPTOR AGONIST PEPTIDE COMPOUNDS AND USES THEREOF” (Takeda Pharmaceutical Company Limited, priority 2020, published 2022):
Starred links: 1 amine or outer side, 2 acyl side, 3 side chain; linkers in the order of their positions; H or OH if unused. Non-standard residues stand in square brackets, D forms with d. Groups on a side chain read outwards from the residue. No end group written: not given here. *: point of attachment. 2OEGgEgE‑C15DA = 2OEGgEgE-C15 diacid linker-lipid on the Lys side chain, O=C(O)CCCCCCCCCCCCCC(=O)N[C@@H](CCC(=O)N[C@@H](CCC(=O)NCCOCCOCC(=O)NCCOCCOCC(=O)*)C(=O)O)C(=O)O; C16 diacid = O=C(O)CCCCCCCCCCCCCCC(=O)*; γGlu = O=C(O)[C@H](CCC(=O)[*:2])N[*:1]; NMeY = CN[C@@H](Cc1ccc(O)cc1)C(=O)O; AEEA = NCCOCCOCC(=O)O; Aib = CC(C)(N)C(=O)O

T1: full-length human GIPR with an N-terminal FLAG tag (human, UniProt P48546 22-466)
T1 sequence (looked up): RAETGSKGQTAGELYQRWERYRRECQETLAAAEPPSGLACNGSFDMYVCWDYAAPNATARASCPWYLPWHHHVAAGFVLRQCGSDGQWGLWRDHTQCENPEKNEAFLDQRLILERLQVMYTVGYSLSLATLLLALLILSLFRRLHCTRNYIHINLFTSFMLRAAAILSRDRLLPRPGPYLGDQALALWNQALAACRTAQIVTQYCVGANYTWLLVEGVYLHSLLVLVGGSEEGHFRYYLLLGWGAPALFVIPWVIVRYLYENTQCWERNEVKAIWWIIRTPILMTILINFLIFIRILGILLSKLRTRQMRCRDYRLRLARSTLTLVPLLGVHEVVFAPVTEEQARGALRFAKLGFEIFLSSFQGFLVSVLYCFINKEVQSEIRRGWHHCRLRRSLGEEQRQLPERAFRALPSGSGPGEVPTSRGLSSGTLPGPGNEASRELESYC

B1: Compound 101 (peptide)
peptide: [NMeY][Aib]EGTFISDYSIALDR[Aib]AQ[Aib]NFVNWLLAQK(2OEGgEgE‑C15DA)PSSGAPPPS-NH2
modifications: N-terminus assumed
SMILES: CC[C@H](C)[C@H](NC(=O)[C@H](CO)NC(=O)[C@H](Cc1ccc(O)cc1)NC(=O)[C@H](CC(=O)O)NC(=O)[C@H](CO)NC(=O)[C@@H](NC(=O)[C@H](Cc1ccccc1)NC(=O)[C@@H](NC(=O)CNC(=O)[C@H](CCC(=O)O)NC(=O)C(C)(C)NC(=O)[C@H](Cc1ccc(O)cc1)NC)[C@@H](C)O)[C@@H](C)CC)C(=O)N[C@@H](C)C(=O)N[C@@H](CC(C)C)C(=O)N[C@@H](CC(=O)O)C(=O)N[C@@H](CCCNC(=N)N)C(=O)NC(C)(C)C(=O)N[C@@H](C)C(=O)N[C@@H](CCC(N)=O)C(=O)NC(C)(C)C(=O)N[C@@H](CC(N)=O)C(=O)N[C@@H](Cc1ccccc1)C(=O)N[C@H](C(=O)N[C@@H](CC(N)=O)C(=O)N[C@@H](Cc1c[nH]c2ccccc12)C(=O)N[C@@H](CC(C)C)C(=O)N[C@@H](CC(C)C)C(=O)N[C@@H](C)C(=O)N[C@@H](CCC(N)=O)C(=O)N[C@@H](CCCCNC(=O)COCCOCCNC(=O)COCCOCCNC(=O)CC[C@H](NC(=O)CC[C@H](NC(=O)CCCCCCCCCCCCCC(=O)O)C(=O)O)C(=O)O)C(=O)N1CCC[C@H]1C(=O)N[C@@H](CO)C(=O)N[C@@H](CO)C(=O)NCC(=O)N[C@@H](C)C(=O)N1CCC[C@H]1C(=O)N1CCC[C@H]1C(=O)N1CCC[C@H]1C(=O)N[C@@H](CO)C(N)=O)C(C)C
B2: Compound 103 (peptide)
peptide: [NMeY][Aib]EGTFISDYSI[Aib]LDR[Aib]AQ[Aib]K(2OEGgEgE‑C15DA)FVNWLLAQSPSSGAPPPS-NH2
modifications: N-terminus assumed
SMILES: CC[C@H](C)[C@H](NC(=O)[C@H](Cc1ccccc1)NC(=O)[C@@H](NC(=O)CNC(=O)[C@H](CCC(=O)O)NC(=O)C(C)(C)NC(=O)[C@H](Cc1ccc(O)cc1)NC)[C@@H](C)O)C(=O)N[C@@H](CO)C(=O)N[C@@H](CC(=O)O)C(=O)N[C@@H](Cc1ccc(O)cc1)C(=O)N[C@@H](CO)C(=O)N[C@H](C(=O)NC(C)(C)C(=O)N[C@@H](CC(C)C)C(=O)N[C@@H](CC(=O)O)C(=O)N[C@@H](CCCNC(=N)N)C(=O)NC(C)(C)C(=O)N[C@@H](C)C(=O)N[C@@H](CCC(N)=O)C(=O)NC(C)(C)C(=O)N[C@@H](CCCCNC(=O)COCCOCCNC(=O)COCCOCCNC(=O)CC[C@H](NC(=O)CC[C@H](NC(=O)CCCCCCCCCCCCCC(=O)O)C(=O)O)C(=O)O)C(=O)N[C@@H](Cc1ccccc1)C(=O)N[C@H](C(=O)N[C@@H](CC(N)=O)C(=O)N[C@@H](Cc1c[nH]c2ccccc12)C(=O)N[C@@H](CC(C)C)C(=O)N[C@@H](CC(C)C)C(=O)N[C@@H](C)C(=O)N[C@@H](CCC(N)=O)C(=O)N[C@@H](CO)C(=O)N1CCC[C@H]1C(=O)N[C@@H](CO)C(=O)N[C@@H](CO)C(=O)NCC(=O)N[C@@H](C)C(=O)N1CCC[C@H]1C(=O)N1CCC[C@H]1C(=O)N1CCC[C@H]1C(=O)N[C@@H](CO)C(N)=O)C(C)C)[C@@H](C)CC

These binders were tested against full-length human GLP-1R with an N-terminal FLAG tag (human, UniProt P43220 24-463) (assay: cell-based or functional assay).
[NMeY][Aib]EGTFISDYSI[Aib]LDR[Aib]AQ[Aib]DFVNWLLAQK(2OEGgE‑C15DA)PSSGAPPPS-NH2 [Compound 100] was tested, and the “Human GLP1R cAMP HEK293T EC50” value was 1000 nM. With [NMeY][Aib]EGTFISDYSIALDRIHQ[Aib]K([AEEA-AEEA-γGlu-C16 diacid])FVNWLLAQK [Compound 9] the “Human GLP1R cAMP HEK293T EC50” value was 95.5 nM. With B1 the “Human GLP1R cAMP HEK293T EC50” value was 550 nM. With [NMeY][Aib]EGTFISDYSI[Aib]LDR[Aib]AQ[Aib]K(2OEGgE‑C15DA)FVNWLLAQSPSSGAPPPS-NH2 [Compound 102] the “Human GLP1R cAMP HEK293T EC50” value was 31.6 nM. B2 was tested, and the “Human GLP1R cAMP HEK293T EC50” value was 148 nM.

What follows are binders tested against T1, full-length human GIPR with an … (assay: cell-based or functional assay).
[NMeY][Aib]EGTFISDYSI[Aib]LDR[Aib]AQ[Aib]DFVNWLLAQK(2OEGgE‑C15DA)PSSGAPPPS-NH2 [Compound 100] was tested, and the “Human GIPR cAMP, HEK293T EC50” value was 0.0007 nM. [NMeY][Aib]EGTFISDYSIALDRIHQ[Aib]K([AEEA-AEEA-γGlu-C16 diacid])FVNWLLAQK [Compound 9] was tested, and the “Human GIPR cAMP, HEK293T EC50” value was 0.0002 nM. B1 was tested, and the “Human GIPR cAMP, HEK293T EC50” value was 0.0002 nM. In the case of [NMeY][Aib]EGTFISDYSI[Aib]LDR[Aib]AQ[Aib]K(2OEGgE‑C15DA)FVNWLLAQSPSSGAPPPS-NH2 [Compound 102], the “Human GIPR cAMP, HEK293T EC50” value is reported as 0.0005 nM. In the case of B2, the “Human GIPR cAMP, HEK293T EC50” value is reported as 0.0005 nM.
